Where no end group is shown, it is not given here.
Biological target: T1, H558-YFPf (human, UniProt Q14524 538-577)
T1 construct: Expressed in HEK293 cells; also called hNav1.5 protein fragment centered on H558 fused to YFP; not shown: enhanced yellow fluorescent protein from the pEYFP-N3 vector
Test: three-channel FRET normalized to CFP, fragments coexpressed in HEK293 cells
Source text: Three-channel FRET ratios were normalized to CFP and reported as FRETc as previously described by Vanderklish and colleagues, Proc Natl Acad Sci USA. 2000; 97:2253-2258. […] In all experiments, FRET was absent from the cell membrane, which is consistent with the inability of these protein fragments to traffic to the membrane. […] More importantly, hNav1.5 interaction occurs preferentially when 1 protein expresses R558 and the other expresses H558.

B1: R558-CFPf (other, human, UniProt Q14524 538-577, looked up)
chain: GSEADFADDENSTAGESESHRTSLLVPWPLRRTSAQGQPS
modifications: also: fused to CFP, linker and end not given here
notes: Expressed in HEK293 cells; not shown: enhanced cyan fluorescent protein from the pECFP-N3 vector
fold increase in FRETc compared with the homotypic FRETc values: 3 fold
